Data: US20210388110A1 (published 2021)
Positions count from the first letter of the chain named.

B1: TR01H084-E22Hh/none-Hi-Kn010G3/L0272-k0 (antibody, human IgG1, kappa, L234A L235A, N297A)
heavy: QVQLVESGGGVVQPGGSLRLSCAASGFTFSNAWMHWVRQAPGKGLEWVAQIKDKSQNYATYYAESVKGRFTISRADSKNSIYLQMNSLKTEDTAVYYCRYVHYAAGYGVDIWGQGTTVTVSSASTKGPSVFPLAPSSKSTSGGTAALGCLVKDYFPEPVTVSWNSGALTSGVHTFPAVLQSSGLYSLSSVVTVPSSSLGTQTYICNVNHKPSNTKVDKKVEPKSCDKTHTCPPCPAPEAAGGPSVFLFPPKPKDTLMISRTPEVTCVVVDVSHEDPEVKFNWYVDGVEVHNAKTKPREEQYASTYRVVSVLTVLHQDWLNGKEYKCKVSNKALPAPIEKTISKAKGQPREPQVYTLPPSRCELTKNQVSLSCAVKGFYPSDIAVEWESNGQPENNYKTTPPVLDSDGSFFLVSKLTVDKSRWQQGNVFSCSVMHEALHNHYTQKSLSLSPDYKDDDDK
chain: EPKSSDKTHTCPPCPAPELLGGPSVFLFPPKPKDTLMISRTPEVTCVVVDVSHEDPEVKFNWYVDGVEVHNAKTKPREEQYNSTYRVVSVLTVLHQDWLNGKEYKCKVSNKALPAPIEKTISKAKGQPREPQVCTLPPSRDELTKNQVSLWCLVKGFYPSDIAVEWESNGQPENNYKTTPPVLDSDGSFFLYSKLTVDKSRWQQGNVFSCSVMHEALHNRYTQKSLSLSP
light: DIVMTQSPLSLPVTPGEPASISCRSSQPLVHSNRQTYLHWYQQKPGQAPRLLIYKVSNRFSGVPDRFSGSGSGTDFTLKISRVEAEDVGVYYCGQGTQVPYTFGQGTKLEIKRTVAAPSVFIFPPSDEQLKSGTASVVCLLNNFYPREAKVQWKVDNALQSGNSQESVTEQDSKDSTYSLSSTLTLSKADYEKHKVYACEVTHQGLSSPVTKSFNRGEC
notes: single-arm
B2: CE115HA179-G1dh//-Hi-Kn010G3/L0000-k0 (antibody, human IgG1, kappa)
heavy: not shown
chain: B1 chain
light: B1 light with P28S, Q35N
notes: single-arm
B3: rCE115H-G1dh//-Hi-Kn010G3/L0000-k0 (antibody, human IgG1, kappa)
heavy: not shown
chain: B1 chain
light: B1 light with P28S, Q35N
notes: single-arm
B4: CE115HA177-G1dh//-Hi-Kn010G3/L0000-k0 (antibody, human IgG1, kappa)
heavy: not shown
chain: B1 chain
light: B1 light with P28S, Q35N
notes: single-arm
B5: hCE115HA-G1dh//-Hi-Kn010G3/L0000-k0 (antibody, human IgG1, kappa)
heavy: not shown
chain: B1 chain
light: B1 light with P28S, Q35N
notes: single-arm
B6: CE115HA178-G1dh//-Hi-Kn010G3/L0000-k0 (antibody, human IgG1, kappa)
heavy: not shown
chain: B1 chain
light: B1 light with P28S, Q35N
notes: single-arm
B7: hCE115HA-E22Hh//-Hi-Kn010G3/L0000-k0 (antibody, human IgG1, kappa, L234A L235A, N297A)
heavy: B1 heavy with G16R, D53A, Q56N, A75D, I81L, A104G, G106Y, I111A
chain: B1 chain
light: B1 light with P28S, Q35N
notes: single-arm
B8: TR01H100-E22Hh/none-Hi-Kn010G3/L0011-k0 (antibody, human IgG1, kappa, L234A L235A, N297A)
heavy: B1 heavy with V11L, G16R, T60S, A75D, I81L, I111A
chain: B1 chain
light: B1 light with Q35N
notes: single-arm
B9: CE115HA180-G1dh//-Hi-Kn010G3/L0000-k0 (antibody, human IgG1, kappa)
heavy: not shown
chain: B1 chain
light: B1 light with P28S, Q35N
notes: single-arm

Target: T1, soluble human CD3ε chain (human, UniProt P07766 23-126, limits assumed)
T1 construct: the text says soluble human CD3ε chain; also called human CD3 epsilon chain
Assay: SPR (Biacore)

T1 sequence (P07766 23-126 limits assumed): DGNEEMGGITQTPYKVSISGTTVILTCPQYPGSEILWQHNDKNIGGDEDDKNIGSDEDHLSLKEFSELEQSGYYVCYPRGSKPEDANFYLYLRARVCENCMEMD

Going from B1 to B2, the Kd falls from 31 nM to 8.35 nM (3.7-fold).

Compared with B3, B4 is 1.6-fold lower in Kd: 57.6 nM for the first, 35.5 nM for the second. The second binds more tightly here.

Compared with B5, B6 is 6-fold lower in Kd: 65 nM for the first, 10.9 nM for the second.

Compared with B7, B8 is 2.3-fold lower in Kd: 143 nM for the first, 62.5 nM for the second. The second binds more tightly here.

With B9 the Kd was 16.8 nM.
